Measurements reported in patent US20050064507.

Experiments:
[1] = tested on: T1, ADD2 peptide KKKFRTPSFLKKSKK (SEQ ID NO:95)
T1 sequence: KKKFRTPSFLKKSKK

[2] = tested on: T2, AKAP12 peptide AGWRKKTSFRKPKED (SEQ ID NO:99)
T2 sequence: AGWRKKTSFRKPKED

[3] = tested on: T3, ANK1 peptide AQIVKRASLKRGKQ (SEQ ID NO:90)
T3 sequence: AQIVKRASLKRGKQ

[4] = tested on: T4, ARHGAP4 peptide AGPLRKSSLKKGGRL (SEQ ID NO:98)
T4 sequence: AGPLRKSSLKKGGRL

[5] = tested on: T5, ARHGAP6 peptide DGQKRKKSLRKKLD (SEQ ID NO:92)
T5 sequence: DGQKRKKSLRKKLD

[6] = tested on: T6, ASIP peptide KKRSSKKEASMKKVVRP (SEQ ID NO:97)
T6 sequence: KKRSSKKEASMKKVVRP

[7] = tested on: T7, CACNA1C peptide RGFLRSASLGRRASFHLE (SEQ ID NO:96)
T7 sequence: RGFLRSASLGRRASFHLE

[8] = tested on: T8, CHRM1 peptide RKIPKRPGSVHRTPSRQ (SEQ ID NO:83)
T8 sequence: RKIPKRPGSVHRTPSRQ

[9] = tested on: T9, CREB1 peptide EILSRRPSYRKILND (SEQ ID NO:106)
T9 sequence: EILSRRPSYRKILND

[10] = tested on: T10, DGKI peptide NRKKKRTSFKRKA (SEQ ID NO:79)
T10 sequence: NRKKKRTSFKRKA

[11] = tested on: T11, DGKZ peptide KKKKRASFKRKSSKKG (SEQ ID NO:77)
T11 sequence: KKKKRASFKRKSSKKG

[12] = tested on: T12, EBNA1BP2 peptide KRPGKKGSNKRPGKR (SEQ ID NO:112)
T12 sequence: KRPGKKGSNKRPGKR

[13] = tested on: T13, ERN1 peptide KLAVGRHSFSRRSGV (SEQ ID NO:94)
T13 sequence: KLAVGRHSFSRRSGV

[14] = tested on: T14, FLJ20574 peptide GENVLKKSMKSRVKG (SEQ ID NO:113)
T14 sequence: GENVLKKSMKSRVKG

[15] = tested on: T15, GABRB2 peptide QKKSRLRRRASQLKI (SEQ ID NO:84)
T15 sequence: QKKSRLRRRASQLKI

[16] = tested on: T16, KCNH2 peptide RQRKRKLSFRRRTDKD (SEQ ID NO:86)
T16 sequence: RQRKRKLSFRRRTDKD

[17] = tested on: T17, LIMK2 peptide KATTKKRTLRKNDRK (SEQ ID NO:108)
T17 sequence: KATTKKRTLRKNDRK

[18] = tested on: T18, MACMARCKS peptide KKPFKLSGLSFKRNRKE (SEQ ID NO:88)
T18 sequence: KKPFKLSGLSFKRNRKE

[19] = tested on: T19, MAP3K14 peptide WKGKRRSKARKKRK (SEQ ID NO:100)
T19 sequence: WKGKRRSKARKKRK

[20] = tested on: T20, MARCKS peptide KKKKKRFSFKKSFKL (SEQ ID NO:80)
T20 sequence: KKKKKRFSFKKSFKL

[21] = tested on: T21, MARCKS peptide KKKRFSFKKSFKLSGFSFKK (SEQ ID NO:111)
T21 sequence: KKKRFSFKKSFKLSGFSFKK

[22] = tested on: T22, MLK3 peptide HVRRRRGTFKRSKLRARD (SEQ ID NO:76)
T22 sequence: HVRRRRGTFKRSKLRARD

[23] = tested on: T23, MYBPC3 peptide LLKKRDSFRTPRDSKLE (SEQ ID NO:103)
T23 sequence: LLKKRDSFRTPRDSKLE

[24] = tested on: T24, NCF1 peptide GAPPRRSSIRNAH (SEQ ID NO:101)
T24 sequence: GAPPRRSSIRNAH

[25] = tested on: T25, NEURL peptide ALRRPSLRREADD (SEQ ID NO:105)
T25 sequence: ALRRPSLRREADD

[26] = tested on: T26, NF1 peptide AGSFKRNSIKKIV (SEQ ID NO:102)
T26 sequence: AGSFKRNSIKKIV

[27] = tested on: T27, NR4A3 peptide KEVVRTDSLKGRRGR (SEQ ID NO:109)
T27 sequence: KEVVRTDSLKGRRGR

[28] = tested on: T28, PARIS1 peptide EYLERRASRRRAV (SEQ ID NO:89)
T28 sequence: EYLERRASRRRAV

[29] = tested on: T29, PLEC1 peptide KRERKTSSKSSVRKRR (SEQ ID NO:81)
T29 sequence: KRERKTSSKSSVRKRR

[30] = tested on: T30, PLEK peptide KFARKSTRRSIRLPE (SEQ ID NO:78)
T30 sequence: KFARKSTRRSIRLPE

[31] = tested on: T31, PPP1R14A peptide QKRHARVTVKYDRRE (SEQ ID NO:107)
T31 sequence: QKRHARVTVKYDRRE

[32] = tested on: T32, PRKCA peptide RFARKGSLRQKNV (SEQ ID NO:85)
T32 sequence: RFARKGSLRQKNV

[33] = tested on: T33, PRKCM peptide VHYTSKDTLRKRHYWR (SEQ ID NO:91)
T33 sequence: VHYTSKDTLRKRHYWR

[34] = tested on: T34, PSCD2 peptide AARKKRISVKKKQEQ (SEQ ID NO:93)
T34 sequence: AARKKRISVKKKQEQ

[35] = tested on: T35, SDPR peptide EKIKRSSLKKVDSLKK (SEQ ID NO:104)
T35 sequence: EKIKRSSLKKVDSLKK

[36] = tested on: T36, SPTBN4 peptide EGGDRRASGRRK (SEQ ID NO:110)
T36 sequence: EGGDRRASGRRK

[37] = tested on: T37, SYTL4 peptide RQGKRKTSIKRDTVNPL (SEQ ID NO:87)
T37 sequence: RQGKRKTSIKRDTVNPL

[38] = tested on: T38, p164-RhoGEF peptide PRLIRRGSKKRPAR (SEQ ID NO:82)
T38 sequence: PRLIRRGSKKRPAR

PKA
in vitro phosphorylation (% of best substrate) [1]: 2
in vitro phosphorylation (% of best substrate) [2]: 1
in vitro phosphorylation (% of best substrate) [3]: 3
in vitro phosphorylation (% of best substrate) [4]: 21
in vitro phosphorylation (% of best substrate) [5]: 18
in vitro phosphorylation (% of best substrate) [6]: 1
in vitro phosphorylation (% of best substrate) [7]: 86
in vitro phosphorylation (% of best substrate) [8]: 2
in vitro phosphorylation (% of best substrate) [9]: 30
in vitro phosphorylation (% of best substrate) [10]: 3
in vitro phosphorylation (% of best substrate) [11]: 4
in vitro phosphorylation (% of best substrate) [12]: 0
in vitro phosphorylation (% of best substrate) [13]: 5
in vitro phosphorylation (% of best substrate) [14]: 0
in vitro phosphorylation (% of best substrate) [15]: 63
in vitro phosphorylation (% of best substrate) [16]: 87
in vitro phosphorylation (% of best substrate) [17]: 0
in vitro phosphorylation (% of best substrate) [18]: 3
in vitro phosphorylation (% of best substrate) [19]: 2
in vitro phosphorylation (% of best substrate) [20]: 3
in vitro phosphorylation (% of best substrate) [21]: 3
in vitro phosphorylation (% of best substrate) [22]: 69
in vitro phosphorylation (% of best substrate) [23]: 3
in vitro phosphorylation (% of best substrate) [24]: 100
in vitro phosphorylation (% of best substrate) [25]: 84
in vitro phosphorylation (% of best substrate) [26]: 5
in vitro phosphorylation (% of best substrate) [27]: 1
in vitro phosphorylation (% of best substrate) [28]: 4
in vitro phosphorylation (% of best substrate) [29]: 2
in vitro phosphorylation (% of best substrate) [30]: 5
in vitro phosphorylation (% of best substrate) [31]: 2
in vitro phosphorylation (% of best substrate) [32]: 81
in vitro phosphorylation (% of best substrate) [33]: 3
in vitro phosphorylation (% of best substrate) [34]: 1
in vitro phosphorylation (% of best substrate) [35]: 1
in vitro phosphorylation (% of best substrate) [36]: 1
in vitro phosphorylation (% of best substrate) [37]: 64
in vitro phosphorylation (% of best substrate) [38]: 10

AKT1
in vitro phosphorylation (% of best substrate) [1]: 9
in vitro phosphorylation (% of best substrate) [2]: 6
in vitro phosphorylation (% of best substrate) [3]: 3
in vitro phosphorylation (% of best substrate) [4]: 7
in vitro phosphorylation (% of best substrate) [5]: 2
in vitro phosphorylation (% of best substrate) [6]: 10
in vitro phosphorylation (% of best substrate) [7]: 32
in vitro phosphorylation (% of best substrate) [8]: 6
in vitro phosphorylation (% of best substrate) [9]: 12
in vitro phosphorylation (% of best substrate) [10]: 7
in vitro phosphorylation (% of best substrate) [11]: 8
in vitro phosphorylation (% of best substrate) [12]: 3
in vitro phosphorylation (% of best substrate) [13]: 9
in vitro phosphorylation (% of best substrate) [14]: 9
in vitro phosphorylation (% of best substrate) [15]: 10
in vitro phosphorylation (% of best substrate) [16]: 39
in vitro phosphorylation (% of best substrate) [17]: 1
in vitro phosphorylation (% of best substrate) [18]: 10
in vitro phosphorylation (% of best substrate) [19]: 3
in vitro phosphorylation (% of best substrate) [20]: 6
in vitro phosphorylation (% of best substrate) [21]: 3
in vitro phosphorylation (% of best substrate) [22]: 100
in vitro phosphorylation (% of best substrate) [23]: 7
in vitro phosphorylation (% of best substrate) [24]: 12
in vitro phosphorylation (% of best substrate) [25]: 12
in vitro phosphorylation (% of best substrate) [26]: 6
in vitro phosphorylation (% of best substrate) [27]: 2
in vitro phosphorylation (% of best substrate) [28]: 1
in vitro phosphorylation (% of best substrate) [29]: 9
in vitro phosphorylation (% of best substrate) [30]: 2
in vitro phosphorylation (% of best substrate) [31]: 3
in vitro phosphorylation (% of best substrate) [32]: 10
in vitro phosphorylation (% of best substrate) [33]: 5
in vitro phosphorylation (% of best substrate) [34]: 7
in vitro phosphorylation (% of best substrate) [35]: 2
in vitro phosphorylation (% of best substrate) [36]: 1
in vitro phosphorylation (% of best substrate) [37]: 7
in vitro phosphorylation (% of best substrate) [38]: 9
